To fix the notation:
B1: 89Zr-DFO-scFv H2a064 (scFv, V domains shown)
VH: QVQLVQSGGGLVQPGRSLRLSCAASGFTFDDYAMHWVRQAPGKGLEWVSGISWNSGSIGYADSVKGRFTISRDNAKNSLYLQMNSLRAEDTALYYCAKDIGSSGWYGAFDIWGQGTTVTVSS
VL: SYELTQPPSVSVSPGQTARITCSGDALPKHYASWYQQKPGQAPVLLIYKDTERPSGIPERFSGSSSGTTVTLTISGVQAEDEADYYCQSADSSVTVVFGGGTKLTVL
B2: Antihuman MSLN His-Tag scFv clone H2a064 (scFv, V domains shown)
VH: B1 VH
VL: B1 VL
B3: DFO-conjugated His-Tag scFv clone H2a064 (scFv, V domains shown)
VH: B1 VH
VL: B1 VL
B4: Antihuman MSLN His-Tag scFv clone H1a050 (scFv, V domains shown)
VH: EVQLVQSGGGLVQPDRSLRLSCAASGFTFDDYAMHWVRQAPGKGLEWVSGISWNSGSIGYADSVKGRFTISRDNAKNSLYLQMNSLRAEDTALYYCAKDLGSYYGSGSGMDVWGQGTTVTVSS
VL: SYELTQPPSVSVSPGQTARITCSGNALPKQYAYWYQQKPGQAPVLMIYKDSERPSGIPERFSGSSSGTTVTLTISGVQAEDEADYYCQSADSSHTYKVFGGGTKLTVL
B5: DFO-conjugated His-Tag scFv clone H1a050 (scFv, V domains shown)
VH: B4 VH
VL: B4 VL
B6: 89Zr-DFO-scFv H1a050 (scFv, V domains shown)
VH: B4 VH
VL: B4 VL

The assay deals with Recombinant soluble form (amino acids 297-580) of human mesothelin (r-MSLN) (Homo sapiens, UniProt Q13421). The experiment in a line: BLI.
B1: the Kd (in general, the concentration at which binding is half-saturated) amounted to 78.2 nM.

On to B2, for which the Kd came to 59.6 nM.

For the molecule B3, the Kd was found to be 114 nM.

On to B4, for which the Kd was 4.68 nM.

In the case of B5, the Kd is 3.38 nM.

On to B6, for which the dissociation constant (Kd) turned out to be 46.2 nM.
